Laboratory results reported in patent US12428485B2, “Compositions and methods to block and bind CCR2 to modulate cellular function” (The Research Foundation for The State University of New York, priority 2019, dated 2025).
Each block holds one molecule with its values, some of them ahead of it.

Legend:
[1] = test system: TNBCs in the mammary fat pads; assay: TNBC tumor growth, dual epitope blocking; format: in vivo, female BALB/c mice; settings: scFvs 1 mg/kg, SMA 2 mg/kg, tail vein, days 7, 9, 12, 14, 16, 18
Procedure: Further, we evaluated the effect of dual epitope blocking of CCCR2 on tumor growth. TNBCs were injected into the mammary fat pads of female BALB/c mice. Treatment of tumored mice started on days 7, 9, 12, 14, 16, and 18. To enhance the circulation half-life of the NTD-scFv and ECL2-scFv, we used site-directed mutagenesis to introduce a cysteine at the C-terminus of the scFvs for covalent attachment of a PEG-maleimide with molecular weight of 20 kDa. Animals (n=10 per group) were systemically (via tail vein injection) treated with (1) PBS, (2) CCR2-small molecule antagonist (SMA), (3) PEG(20K)-NTD-scFv, (4) PEG(20K)-ECL2-scFv, and (5) a NTD and ECL2 combo (co-dosing of PEG(20K)-NTD-scFv and PEG(20K)-ECL2-scFv).

[2] = test system: triple-negative breast cancer (TNBC) tumors; assay: Flow cytometry of immune cells in harvested TNBC tumors; format: in vivo, BALB/c mice
Description: At study completion, the tumors were harvested, digested, and single cell suspensions stained for immune cells. Dual-epitope blocking of CCR2 reduced TAMs, MDSCs, and M2-Macrophages and increased M1-Macrophages in triple-negative breast cancer (TNBCs).
We observed that dual-epitope scFv combination treatment outperforms small molecule CCR2 antagonist (SMA) and decreased tumor-associated macrophages (TAMs), myeloid-derived suppressor cells (MDSCs), and M2-macrophages and increased M1-macrophages. Single cell suspension from the harvested tumors were analyzed by flow cytometry. The cells were stained for (A) CD68+ TAMs, (B) MDSCs, (C) MHC class II macrophages (M1), and (D) CD206+ macrophages (M2).
Treatment groups included: PBS, CCR2 small molecule antagonist (SMA), PEG(20K)-ECL2-scFv, PEG(20K)-NTD-scFv, and NTD & ECL2 combination (co-dosing of PEG(20K)-ECL2-scFv and PEG(20K)-NTD-scFv), with *p<0.05, **p<0.01, and ***p<0.001 by one-way ANOVA followed by Tukey's post-test.

[3] = test system: RAW 264.7 mouse macrophages; assay: Macrophage polarization, RT-PCR of M1/M2 marker genes, RAW 264.7; format: cell-based; settings: RAW 264.7, 24 h; LPS 100 ng/mL, IL-4 20 ng/mL, 58C-scFv 1 μM
Procedure: RAW 264.7 mouse macrophages were incubated with either LPS (100 ng/mL), IL-4 (20 ng/mL; PeproTech, Rocky Hill, NJ), or 58C-scFv (1 μM) for 24 h. For the multivalency studies, RAW 264.7 mouse macrophages were first incubated with IL-4 (20 ng/mL) for 24 h to stimulate an M2 phenotype. Following the 24 h incubation, fresh media with 58C-scFv (89 nM) was added to the cells and incubated for an additional 24 h. Total RNA was isolated with QIAzol lysis reagent (Qiagen, Germany) and total cDNA was generated using the New England Biolabs first stand synthesis kit (Ipswich, MA). RNA expression was detected by reverse transcription (RT)-PCR performed with the SYBR Green PCR kit (Qiagen). For each sample, the ΔΔCt value was calculated. Experiments were performed in triplicate. […]
To assess the effects of the anti-CCR2 scFvs on macrophage polarization, RAW 264.7 and bone marrow-derived macrophages (BMDMs) were treated with NTD-scFv and ECL2-scFv. […] To determine whether these changes were additive, synergistic, or antagonistic, the combination indices (CI) were calculated for NTD-scFv and ECL2-scFv by treating cells with a combination of NTD-scFv and ECL2-scFv. CI was calculated by: CI=(CA,X/ICX,A)+(CB,X/ICX,B), where CA,X and CB,X are the concentration of drug A (in this case NTD-scFv) and B (here, ECL2-scFv) used in combination to achieve x % drug effect. […]

[4] = test system: 4T1 breast cancer cells; assay: Cell binding by flow cytometry, 4T1; settings: MFI
Description: FIG. 16. ECL2-scFv binding to the ECL2 domain of the CCR2 chemokine receptor.

[5] = molecular target: T1, human CCR2 (Homo sapiens, UniProt P41597); assay: Cross-reactivity with human CCR2; format: binding
T1 construct: endogenous in cells; host or cells: MDA-MB-231 human breast cancer cells
T1 sequence (P41597 whole entry): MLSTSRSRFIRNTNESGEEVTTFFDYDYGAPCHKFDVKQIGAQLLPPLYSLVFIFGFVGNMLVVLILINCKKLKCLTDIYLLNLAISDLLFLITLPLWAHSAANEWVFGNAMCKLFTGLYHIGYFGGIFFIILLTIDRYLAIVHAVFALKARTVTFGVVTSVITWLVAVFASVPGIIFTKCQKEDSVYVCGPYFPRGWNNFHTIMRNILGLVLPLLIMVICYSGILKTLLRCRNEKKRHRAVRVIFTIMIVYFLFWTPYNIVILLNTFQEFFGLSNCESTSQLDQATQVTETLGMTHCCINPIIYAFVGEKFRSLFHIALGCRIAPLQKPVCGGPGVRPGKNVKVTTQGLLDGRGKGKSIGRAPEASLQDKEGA

[6] = test system: RAW 264.7 macrophage cells; assay: Cell binding analysis by flow cytometry, RAW 264.7; parameters: species or system mouse; settings: fluorescently labeled scFv
Procedure: FIG. 13. Binding of monomeric 58C-scFv (circles), low valency 58C-scFv attached to liposomes (triangles), and high valency 58C-scFv attached to liposomes (squares) to RAW 264.7 macrophage cells as determined by flow cytometry. […] The liposomes were incubated with DyLight 650 NHS Ester labeled 58C-scFv at 4° C. overnight. Cells were detached with 5 mM EDTA and re-suspended in PBS to a concentration of 50,000 cells per 300 μL. The cells were incubated with various dilutions of DyLight 650 NHS Ester labeled 58C-scFv (free, low degree of valency, or high degree of valency) for 1 h at 4° C. Cells were washed three times with 5% BSA and analyzed in the APC channel of a MACSQuant Analyzer 10 flow cytometer (Miltenyi Biotec, Bergisch Gladbach, Germany).
Cells were detached with 5 mM EDTA and re-suspended in PBS to a concentration of 50,000 cells per 300 μL. Cells were plated in a 48-well plate and incubated for 30 min at 4° C. After removing the PBS solution, the cells were incubated with various dilutions of DyLight 650 NHS Ester labeled 58C-scFv for 1 h at 4° C. Cells were washed three times with 5% BSA, detached with EDTA, and analyzed in the APC channel of a MACSQuant Analyzer 10 flow cytometer (Miltenyi Biotec, Bergisch Gladbach, Germany).

Molecule: Cc1ccc2c(c1)C1(CCN(CCc3nc(-c4ccccc4)oc3C)CC1)OC(=O)N2 [RS 504393]
- reduction in tumor volume, order among treatment groups [1]: weakest effect
- effects on TAMs, MDSCs, M1 and M2 macrophages compared to PBS control ([2]; FIG. 24A-D, SMA 2 mg/kg): not significant
- change in Tregs, CD8+ and CD4+ T cells compared to PBS treated mice ([2]; flow cytometry): no statistically significant reduction

B1: IL-4: interleukin, M2 promoting agent (protein, UniProt P05112 25-153, looked up)
Interleukin-4: HKCDITLQEIIKTLNSLTEQKTLCTELTVTDIFAASKNTTEKETFCRAATVLRQFYSHHEKDTRCLGATAQQFHRHKQLIRFLKRLDRNLWGLAGLNSCPVKEANQSTLENFLERLKTIMREKYSKCSS
- macrophage polarization, M1/M2 gene expression compared to the untreated control [3]: increased both Arg-1 and Mgl2 gene expression

- cross-reactivity, binding to human CCR2 [5]: bind to human CCR2
B2: ECL2-scFv: scFv against the 2nd extracellular loop (ECL2) of CCR2; Example 3 names scFv 4h, SEQ ID NO:6 (protein, listed as Homo sapiens)
scFv: MKKTAIAIAVALAGFATVAQADYKDDDDKLQSVLTQPPSASGTPGQRVTISCSGSSSNIGSHTVNWYQQLPGTAPKLLIYRNNQRPSGVPDRFSGSKSGTSASLAISGLRSEDEADYYCAAWDDSLSGVVFGGGTKLTVLGEGKSSGSGSESKASQVTLKESGAEVKKPGASVKVSCKASGYTFTNFYIHWVRRAPGQGLEWMGIINPSDGRTTYAQKFQGRVTMTRDTSTSTLYMELTSLRSEDTAVYYCGRGGHYSNYFGQPSTWGQGTLVTVSSVEAS
- binding to 4T1 breast cancer cells [4]: binds
- binding to RAW 264.7 cells [6]: binds
